In article PMC4906023:

Biological target: His6-GyrB subunit of M. tuberculosis DNA gyrase (M. tuberculosis H37Rv) (UniProt P9WG45)
Assay: SPR; BIAcore T200; […], association 180 s, dissociation 600 s; HBS-N

B1: MParE2 without the His6-tag (natural protein)
chain: MTRRLRVHNGVEDDLFEAFSYYADAAPDQIDRLYNLFVDAVTKRIPQAPNAFAPLFKHYRHIYLRPFRYYVAYRTTDEAIDILAVRHGMENPNAVEAEISGRTFE
Kd: 4.75 µM
